Reference: article PMC7556843 (2020)

Molecular target: Ub2 (Homo sapiens)
Test: ITC; values taken from Vincendeau et al.

Kd: 1810 nM
B1: Human NEMO258-350 C347S (NEMO UBAN domain) (domain or fragment)
chain: MQLEDLKQQLQQAEEALVAKQEVIDKLKEEAEQHKIVMETVPVLKAQADIYKADFQAERQAREKLAEKKELLQEQLEQLQREYSKLKASSQES
modifications: linear (M1-linked) diubiquitin, two 76-residue units fused head to tail; the N-terminal His-tag present in the SAXS sample is left out
